Experimental data taken from PMC2964155 (Virology, 2010).
Several values for one entry are separate records, joined by “and”; a condition that tells them apart may be missing. Identical values can stand only once.

How the values were obtained:
[1] = biological target: Hepatitis B Virus (HBV) capsid (core) protein Cp183, adyw wildtype (Hepatitis B Virus, adyw); test: negative-stain electron microscopy
[2] = biological target: Hepatitis B Virus (HBV) capsid protein Cp183-EEE (S155E/S162E/S170E) (Hepatitis B Virus, adyw); test: negative-stain electron microscopy
[3] = biological target: the molecule itself; test: SEC-MALS

Molecule: Hepatitis B Virus (HBV) capsid (core) protein Cp183, adyw wildtype (natural protein)
- stoichiometry N [1]: 240 and 180

Molecule: Hepatitis B Virus (HBV) capsid protein Cp183-EEE (S155E/S162E/S170E) (natural protein)
- stoichiometry N [2]: 240 and 180

B1: Brome Mosaic Virus (BMV) capsid protein (natural protein)
chain: MSTSGTGKMTRAQRRAAARRNRWTARVQPVIVEPLAAGQGKAIKAIAGYSISKWEASSDAITAKATNAMSITLPHELSSEKNKELKVGRVLLWLGLLPSVAGRIKACVAEKQAQAEAAFQVALAVADSSKEVVAAMYTDAFRGATLGDLLNLQIYLYASEAVPAKAVVVHLEVEHVRPTFDDFFTPVYR
- stoichiometry N [3]: 180
